From patent publication US20240024426A1, “HYPOTENSIVE PHARMACEUTICAL COMPOSITION COMPRISING TRIPLE ACTIVATOR HAVING ACTIVITY FOR ALL OF GLUCAGON, GLP-1, AND GIP RECEPTORS” (HANMI PHARM. CO., LTD., priority 2020, published 2024) come the findings set out here.

Bridges are numbered along the chain shown (N, C = ends). Where no end group is shown, it is not given here. [ ]: non-standard residue; d: D form. The star is where a group is joined. Acetyl(2-(4-imidazolyl)) = O=C(Cc1c[nH]cn1)*; Aib = CC(C)(N)C(=O)O A value given as a limit tells only on which side of the number the result lay.

Chain of human GCG receptor (P47871 26-477): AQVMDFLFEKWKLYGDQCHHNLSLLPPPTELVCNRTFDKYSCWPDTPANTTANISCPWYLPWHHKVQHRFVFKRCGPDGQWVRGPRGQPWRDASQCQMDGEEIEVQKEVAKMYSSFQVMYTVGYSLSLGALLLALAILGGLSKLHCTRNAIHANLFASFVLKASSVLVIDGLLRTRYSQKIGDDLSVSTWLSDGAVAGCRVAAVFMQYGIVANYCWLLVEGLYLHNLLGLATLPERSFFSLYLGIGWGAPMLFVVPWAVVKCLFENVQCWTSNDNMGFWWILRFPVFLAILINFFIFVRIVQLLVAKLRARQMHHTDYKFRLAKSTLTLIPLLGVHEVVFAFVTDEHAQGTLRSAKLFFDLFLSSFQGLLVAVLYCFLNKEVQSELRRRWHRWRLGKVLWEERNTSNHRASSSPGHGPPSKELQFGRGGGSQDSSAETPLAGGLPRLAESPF

The first assay deals with human GLP-1 receptor (human, UniProt P43220 24-463). The assay is described as follows: cell-based or functional assay.
With {Acetyl(2-(4-imidazolyl))}-[Aib]QGTFTSDYSIAMDEIACKDFVNWLLNTK (bridge 15-19) [Triple agonist of SEQ ID NO: 61], the “In vitro activity compared with native peptide (%) vs. GLP-1” value (shortened to “In vitro activity … (%) vs. GLP-1”) amounted to 59.8%.
Consider H[Aib]EGTFTSDYSIAMDEIHQKDFVNWLLAQKC (bridge 16-20) [Triple agonist of SEQ ID NO: 79], for which the “In vitro activity … (%) vs. GLP-1” value worked out at 41.5%.
Same read-out and setting: then Y[Aib]QGTFTSDYSKYLDERACKDFVQWLLDHHPSSGQPPPS (bridge 16-20) [Triple agonist of SEQ ID NO: 71], with 90.1%; and {Acetyl(2-(4-imidazolyl))}-[Aib]QGTFTSDYSICMDEKHQKDFVNWLLNTK (bridge 15-19) [Triple agonist of SEQ ID NO: 59], with 40.3%; and Y[Aib]QGTFTSDCSKYLDERAAKDFVQWLLDHHPSSGQPPPS (bridge 16-20) [Triple agonist of SEQ ID NO: 72], with 11.5%.
On the same count and under the same terms, then H[Aib]QGTFTSDVSKYLDGQAAQEFVAWLLKGC [Triple agonist of SEQ ID NO: 8], with 14.2%.
The same measure, in the same setting: then {Acetyl(2-(4-imidazolyl))}-[Aib]QGTFTSDYSIAMDEKHCKDFVNWLLNTK (bridge 15-19) [Triple agonist of SEQ ID NO: 60], with 106%.
For the molecule H[Aib]QGTFTSDYSKCLDEKRAKEFVQWLLDHHPSSGQPPPS (bridge 16-20) [Triple agonist of SEQ ID NO: 65], the “In vitro activity … (%) vs. GLP-1” value is 95.4%.
On the same count and under the same terms, then Y[Aib]QGTFTSDYSKCLDEKAAKEFVQWLLDHHPSSGQPPPS (bridge 16-20) [Triple agonist of SEQ ID NO: 68], with 27.9%.
On the same count and under the same terms, then {Acetyl(2-(4-imidazolyl))}-[Aib]QGTFTSDKSKYLDERAAQDFVQWLLDGGPSSGAPPPS [Triple agonist of SEQ ID NO: 62], with 5.2%.
Same read-out and setting: then H[Aib]QGTFTSDYSKYLDEKRQKEFVQWLLNTKC (bridge 16-20) [Triple agonist of SEQ ID NO: 58], with 39.1%; and {Acetyl(2-(4-imidazolyl))}-[Aib]QGTFTSDYSKYLDEKRQKEFVQWLLNTC (bridge 15-19) [Triple agonist of SEQ ID NO: 81], with 7.8%.
On to Y[Aib]QGTFTSDYSKYLDECAAKDFVQWLLDHHPSSGQPPPS (also: ring formation, positions not given here) [Triple agonist of SEQ ID NO: 67], for which the “In vitro activity … (%) vs. GLP-1” value was 28.5%.

The target of a further assay is T1, human GIP receptor (human, UniProt P48546 22-466).
T1 sequence (looked up): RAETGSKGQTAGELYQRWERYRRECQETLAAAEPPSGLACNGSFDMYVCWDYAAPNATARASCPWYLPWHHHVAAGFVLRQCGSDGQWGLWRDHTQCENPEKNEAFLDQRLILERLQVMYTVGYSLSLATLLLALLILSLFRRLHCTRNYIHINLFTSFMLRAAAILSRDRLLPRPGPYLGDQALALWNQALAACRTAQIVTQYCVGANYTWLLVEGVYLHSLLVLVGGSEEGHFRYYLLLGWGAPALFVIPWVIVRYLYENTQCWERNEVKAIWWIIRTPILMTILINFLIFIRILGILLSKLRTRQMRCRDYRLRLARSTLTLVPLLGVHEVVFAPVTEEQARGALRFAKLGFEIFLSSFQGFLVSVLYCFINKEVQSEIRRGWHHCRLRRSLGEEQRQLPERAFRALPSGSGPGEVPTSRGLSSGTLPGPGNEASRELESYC
The assay is described as follows: cell-based or functional assay.
With {Acetyl(2-(4-imidazolyl))}-[Aib]QGTFTSDYSIAMDEIACKDFVNWLLNTK (bridge 15-19) [Triple agonist of SEQ ID NO: 61], the “In vitro activity compared with native peptide (%) vs. GIP” value (“In vitro activity … (%) vs. GIP” for short) came to 2.8%.
For the molecule H[Aib]EGTFTSDYSIAMDEIHQKDFVNWLLAQKC (bridge 16-20) [Triple agonist of SEQ ID NO: 79], the “In vitro activity … (%) vs. GIP” value stood at 1.4%.
The same measure, in the same setting: then Y[Aib]QGTFTSDYSKYLDERACKDFVQWLLDHHPSSGQPPPS (bridge 16-20) [Triple agonist of SEQ ID NO: 71], with 94.7%.
Same read-out and setting: then {Acetyl(2-(4-imidazolyl))}-[Aib]QGTFTSDYSICMDEKHQKDFVNWLLNTK (bridge 15-19) [Triple agonist of SEQ ID NO: 59], with 4%.
On the same count and under the same terms, then Y[Aib]QGTFTSDCSKYLDERAAKDFVQWLLDHHPSSGQPPPS (bridge 16-20) [Triple agonist of SEQ ID NO: 72], with 1.6%.
As for H[Aib]QGTFTSDVSKYLDGQAAQEFVAWLLKGC [Triple agonist of SEQ ID NO: 8], the “In vitro activity … (%) vs. GIP” value is less than 0.1%.
Regarding {Acetyl(2-(4-imidazolyl))}-[Aib]QGTFTSDYSIAMDEKHCKDFVNWLLNTK (bridge 15-19) [Triple agonist of SEQ ID NO: 60], the “In vitro activity … (%) vs. GIP” value came to 8.2%.
Same read-out and setting: the value for H[Aib]QGTFTSDYSKCLDEKRAKEFVQWLLDHHPSSGQPPPS (bridge 16-20) [Triple agonist of SEQ ID NO: 65] was 11.6%.
On the same count and under the same terms, then Y[Aib]QGTFTSDYSKCLDEKAAKEFVQWLLDHHPSSGQPPPS (bridge 16-20) [Triple agonist of SEQ ID NO: 68], with 107%; and {Acetyl(2-(4-imidazolyl))}-[Aib]QGTFTSDKSKYLDERAAQDFVQWLLDGGPSSGAPPPS [Triple agonist of SEQ ID NO: 62], with less than 0.1%; and H[Aib]QGTFTSDYSKYLDEKRQKEFVQWLLNTKC (bridge 16-20) [Triple agonist of SEQ ID NO: 58], with 0.2%.
{Acetyl(2-(4-imidazolyl))}-[Aib]QGTFTSDYSKYLDEKRQKEFVQWLLNTC (bridge 15-19) [Triple agonist of SEQ ID NO: 81]: the “In vitro activity … (%) vs. GIP” value is less than 0.1%.
Regarding Y[Aib]QGTFTSDYSKYLDECAAKDFVQWLLDHHPSSGQPPPS (also: ring formation, positions not given here) [Triple agonist of SEQ ID NO: 67], the “In vitro activity … (%) vs. GIP” value is 39.8%.

The next assay concerns the target human GCG receptor (human, UniProt P47871 26-477). The assay is described as follows: cell-based or functional assay.
For the molecule {Acetyl(2-(4-imidazolyl))}-[Aib]QGTFTSDYSIAMDEIACKDFVNWLLNTK (bridge 15-19) [Triple agonist of SEQ ID NO: 61], the “In vitro activity compared with native peptide (%) vs. Glucagon” value (from here on “In vitro activity … (%) vs. Glucagon”) was less than 0.1%.
Same read-out and setting: then H[Aib]EGTFTSDYSIAMDEIHQKDFVNWLLAQKC (bridge 16-20) [Triple agonist of SEQ ID NO: 79], with 4.9%.
On the same count and under the same terms, then Y[Aib]QGTFTSDYSKYLDERACKDFVQWLLDHHPSSGQPPPS (bridge 16-20) [Triple agonist of SEQ ID NO: 71], with 12.7%; and {Acetyl(2-(4-imidazolyl))}-[Aib]QGTFTSDYSICMDEKHQKDFVNWLLNTK (bridge 15-19) [Triple agonist of SEQ ID NO: 59], with less than 0.1%; and Y[Aib]QGTFTSDCSKYLDERAAKDFVQWLLDHHPSSGQPPPS (bridge 16-20) [Triple agonist of SEQ ID NO: 72], with 1%.
As to H[Aib]QGTFTSDVSKYLDGQAAQEFVAWLLKGC [Triple agonist of SEQ ID NO: 8], the “In vitro activity … (%) vs. Glucagon” value was 0.1%.
Take {Acetyl(2-(4-imidazolyl))}-[Aib]QGTFTSDYSIAMDEKHCKDFVNWLLNTK (bridge 15-19) [Triple agonist of SEQ ID NO: 60]: the “In vitro activity … (%) vs. Glucagon” value was less than 0.1%.
Same read-out and setting: then H[Aib]QGTFTSDYSKCLDEKRAKEFVQWLLDHHPSSGQPPPS (bridge 16-20) [Triple agonist of SEQ ID NO: 65], with 25.2%; and Y[Aib]QGTFTSDYSKCLDEKAAKEFVQWLLDHHPSSGQPPPS (bridge 16-20) [Triple agonist of SEQ ID NO: 68], with 8.8%; and {Acetyl(2-(4-imidazolyl))}-[Aib]QGTFTSDKSKYLDERAAQDFVQWLLDGGPSSGAPPPS [Triple agonist of SEQ ID NO: 62], with less than 0.1%.
Same read-out and setting: then H[Aib]QGTFTSDYSKYLDEKRQKEFVQWLLNTKC (bridge 16-20) [Triple agonist of SEQ ID NO: 58], with 2.6%.
Still for that read-out and setting: then {Acetyl(2-(4-imidazolyl))}-[Aib]QGTFTSDYSKYLDEKRQKEFVQWLLNTC (bridge 15-19) [Triple agonist of SEQ ID NO: 81], with 0.3%.
On to Y[Aib]QGTFTSDYSKYLDECAAKDFVQWLLDHHPSSGQPPPS (also: ring formation, positions not given here) [Triple agonist of SEQ ID NO: 67], for which the “In vitro activity … (%) vs. Glucagon” value is 46.2%.
